Data on seven molecules can be found in PMC9177701, “Taf2 mediates DNA binding of Taf14” (Nature Communications, 2022).

Series [1] addresses FAM-labeled Taf2CT peptide (S. cerevisiae) (UniProt P23255). Nature of the series: MST; FAM-labeled Taf2CT peptide kept at 20 nM, Taf14ET varied; 20 mM Tris-HCl pH 7.5, 150 mM NaCl, 0–0.2 mM TCEP; Monolith NT.115; n = 3.
The target of series [2] is His-Taf14ET (S. cerevisiae) (UniProt P35189). Nature of the series: MST; His-tagged Taf14 protein labeled with RED-tris-NTA kept at 20 nM, unlabeled peptide added stepwise; 20 mM Tris-HCl pH 7.5, 150 mM NaCl, 0–0.2 mM TCEP; Monolith NT.115; n = 2 or 3.
Series [3] concerns Taf14dYEATS (Saccharomyces cerevisiae). Nature of the series: EMSA. Conditions: EMSA: 20-25 mM Tris-HCl pH 7.5, 100-150 mM NaCl, 0.2 mM EDTA (+20% glycerol for NCP), 4 °C 10 min, 0.25 pmol/lane; NMR: 50 mM Tris pH 6.6-7.5, 150 mM NaCl or ….
Series [4] has as its system Taf14dET (Saccharomyces cerevisiae). Nature of the series: EMSA. Conditions: EMSA: 20-25 mM Tris-HCl pH 7.5, 100-150 mM NaCl, 0.2 mM EDTA (+20% glycerol for NCP), 4 °C 10 min, 0.25 pmol/lane; NMR: 50 mM Tris pH 6.6-7.5, 150 mM NaCl or ….
For the next series, the target named is Taf14FL;Taf2CT (Saccharomyces cerevisiae;Saccharomyces …, UniProt P35189;P23255 1-244;1392-1402, |). Nature of the series: EMSA; Taf14:Taf2CT 1:10; augmented vs Taf14FL alone; EMSA: 20-25 mM Tris-HCl pH 7.5, 100-150 mM NaCl, 0.2 mM EDTA (+20% glycerol for NCP), 4 °C 10 min, 0.25 pmol/lane; NMR: 50 mM Tris pH 6.6-7.5, 150 mM NaCl or 1x PBS, 298 K. As to conditions: 15N-labelled for NMR;; 5' overhang 1 nt (extra T on strand 2 as printed).

The target in the next series is Taf14FL (Saccharomyces cerevisiae, UniProt P35189 1-244). Nature of the series: EMSA; EMSA: 20-25 mM Tris-HCl pH 7.5, 100-150 mM NaCl, 0.2 mM EDTA (+20% glycerol for NCP), 4 °C 10 min, 0.25 pmol/lane; NMR: 50 mM Tris pH 6.6-7.5, 150 mM NaCl or 1x PBS, 298 K. Conditions: protein: recombinant; 15N-labelled for NMR; 5' overhang 1 nt (extra T on strand 2 as printed).
Series [5] addresses T1, Taf14_(YEATS) (YEATS domain of Taf14, aa 1–137) (S. cerevisiae, UniProt P35189 1-137, uniformly 15N-labeled).
T1 construct: Taf14, S. cerevisiae, YEATS domain, aa 1–137; source: E. coli Rosetta-2 (DE3) pLysS, minimal media with 15NH4Cl, purified
T1 sequence (looked up): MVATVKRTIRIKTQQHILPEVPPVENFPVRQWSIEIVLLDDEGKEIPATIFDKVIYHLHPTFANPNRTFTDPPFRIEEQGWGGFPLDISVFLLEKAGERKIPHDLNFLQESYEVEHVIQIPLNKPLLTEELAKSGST
Nature of the series: NMR titration; 1H,15N HSQC of 0.1–0.3 mM uniformly 15N-labeled Taf14 protein, unlabeled peptide added; 298 K; 50 mM Tris-HCl pH 6.6–7.5, 150 mM NaCl, 0–5 mM DTT or 0.2 mM TCEP, or 1x PBS pH 6.6–7.5. As to conditions: both partners purified.

For series [6], the target named is T2, Taf14FL (full-length Taf14, aa 1–244) (S. cerevisiae, UniProt P35189 1-244).
T2 construct: Taf14 (transcription initiation factor subunit 14), S. cerevisiae, aa 1–244, a 244-residue protein; In the EMSAs (functional rows) GST-Taf14 or Taf14 proteins were used; source: E. coli Rosetta-2 (DE3) pLysS, purified (SEC for cross-linking; 15N-labeled for NMR)
T2 sequence (looked up): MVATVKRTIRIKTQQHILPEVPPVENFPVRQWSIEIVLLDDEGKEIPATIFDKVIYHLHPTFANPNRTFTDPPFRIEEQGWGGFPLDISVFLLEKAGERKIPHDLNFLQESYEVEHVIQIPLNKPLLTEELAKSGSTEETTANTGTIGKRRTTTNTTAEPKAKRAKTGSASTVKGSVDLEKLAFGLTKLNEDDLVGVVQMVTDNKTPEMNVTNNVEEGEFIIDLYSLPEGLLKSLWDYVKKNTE
The description is as above. As to conditions: both partners purified.

A further series addresses T3, His-Taf14FL (S. cerevisiae, UniProt P35189 1-244).
T3 construct: Taf14, S. cerevisiae, aa 1–244; Labelled on the His tag with the His-Tag Labeling Kit RED-tris-NTA (2nd Generation) for MST; source: E. coli Rosetta-2 (DE3) pLysS, purified (Ni-NTA, SEC)
T3 sequence (looked up): T2 sequence (looked up)
Nature of the series: MST; His-tagged Taf14 protein labeled with RED-tris-NTA kept at 20 nM, unlabeled peptide added stepwise; 20 mM Tris-HCl pH 7.5, 150 mM NaCl, 0–0.2 mM TCEP; Monolith NT.115; n = 2 or 3. As to conditions: both partners purified.

The target of the next series is T4, His-Taf14_(YEATS) (S. cerevisiae, UniProt P35189 1-137).
T4 construct: Taf14, S. cerevisiae, YEATS domain, aa 1–137; Labelled on the His tag with the His-Tag Labeling Kit RED-tris-NTA (2nd Generation) for MST; source: E. coli Rosetta-2 (DE3) pLysS, purified (Ni-NTA, SEC)
T4 sequence (looked up): T1 sequence (looked up)
Described as above. Conditions: both partners purified.

Ends that are not written are not given here. * marks the point of attachment. Crotonyl(E) = C/C=C/C(=O)* Some results are limits rather than exact numbers.

FAM-labeled Taf2CT peptide (S. cerevisiae), sequence (P23255 whole entry, looked up, tested part not stated): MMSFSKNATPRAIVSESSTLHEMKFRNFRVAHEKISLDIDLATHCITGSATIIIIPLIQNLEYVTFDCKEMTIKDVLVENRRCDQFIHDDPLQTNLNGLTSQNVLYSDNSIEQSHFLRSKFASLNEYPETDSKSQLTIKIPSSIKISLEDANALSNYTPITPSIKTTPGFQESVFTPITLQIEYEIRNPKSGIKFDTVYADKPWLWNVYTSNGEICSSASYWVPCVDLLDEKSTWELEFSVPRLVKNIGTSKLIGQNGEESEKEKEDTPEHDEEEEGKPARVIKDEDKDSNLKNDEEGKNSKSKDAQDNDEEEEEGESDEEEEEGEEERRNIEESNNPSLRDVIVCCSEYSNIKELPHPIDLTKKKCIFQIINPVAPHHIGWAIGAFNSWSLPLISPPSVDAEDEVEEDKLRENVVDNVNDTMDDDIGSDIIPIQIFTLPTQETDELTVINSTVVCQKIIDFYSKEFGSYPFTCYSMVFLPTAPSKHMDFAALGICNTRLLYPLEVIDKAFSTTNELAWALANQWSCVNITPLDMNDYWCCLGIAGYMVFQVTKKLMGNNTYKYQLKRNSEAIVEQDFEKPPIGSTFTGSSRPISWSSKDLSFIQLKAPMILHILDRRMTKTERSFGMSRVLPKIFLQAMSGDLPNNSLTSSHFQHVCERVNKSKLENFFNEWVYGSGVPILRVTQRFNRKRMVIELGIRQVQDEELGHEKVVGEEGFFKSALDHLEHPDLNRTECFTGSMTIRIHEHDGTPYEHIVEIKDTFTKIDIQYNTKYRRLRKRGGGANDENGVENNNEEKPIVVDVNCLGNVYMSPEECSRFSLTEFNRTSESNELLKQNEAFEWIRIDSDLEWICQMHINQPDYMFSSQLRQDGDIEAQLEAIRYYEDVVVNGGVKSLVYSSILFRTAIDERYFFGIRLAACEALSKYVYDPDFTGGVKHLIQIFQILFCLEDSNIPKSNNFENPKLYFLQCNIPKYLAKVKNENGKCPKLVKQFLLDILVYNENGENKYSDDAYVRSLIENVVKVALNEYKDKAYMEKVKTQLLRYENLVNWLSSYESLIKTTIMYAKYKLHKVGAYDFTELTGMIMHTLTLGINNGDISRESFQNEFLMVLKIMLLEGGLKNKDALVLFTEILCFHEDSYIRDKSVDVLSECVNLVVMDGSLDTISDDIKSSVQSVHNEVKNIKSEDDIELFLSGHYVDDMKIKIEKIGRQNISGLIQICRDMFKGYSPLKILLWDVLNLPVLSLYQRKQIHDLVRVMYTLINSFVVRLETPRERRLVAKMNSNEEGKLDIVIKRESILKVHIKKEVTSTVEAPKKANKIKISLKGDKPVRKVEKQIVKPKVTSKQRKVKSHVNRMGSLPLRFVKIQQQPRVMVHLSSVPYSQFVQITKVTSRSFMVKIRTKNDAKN

In turn, “Taf14ET (ET domain of Taf14, aa 168–243) (from UniProt P35189 168-243) (domain or fragment)” showed a dissociation constant Kd in series [1] of 1.6 µM.

As for “Taf14_(Linker) peptide (aa 145–169 of Taf14) (from UniProt P35189 145-169)”, the Kd in series [2] came out at 640 µM.

As to 601 Widom DNA 147 bp, the binding signal (fold tighter than Taf14FL) in series [3] and in series [4] was over 6 throughout.

B1: 37 bp non-specific dsDNA (dsDNA)
DNA 1: CGTGTCAGATATATACATCCGATATCAGATCTCGTCA
DNA 2: TTGACGAGATCTGATATCGGATGTATATATCTGACACG
In the case of B1, the binding result with Taf14FL;Taf2CT and with Taf14FL was “binds” in each case.

B2: H3K9cr_(5-13) peptide (residues 5–13 of H3) (peptide, UniProt P61830 6-14, looked up)
peptide: QTARK(Crotonyl(E))STGG
notes: also called H3K9cr peptide; source: synthetic peptide (Synpeptide)
In the case of B2, the binding result in series [5] is recorded as “binds”.

B3: H3K9cr_(1-19) peptide (peptide, UniProt P61830 2-20, looked up)
peptide: ARTKQTARKSTGGKAPRKQ
modifications: crotonyl-lysine at 9
notes: the NMR methods list only H3K9cr_(5-13)
B3: the binding result in series [6] was “binds”.

B4: Taf2CT peptide (aa 1392–1402 of Taf2) (peptide, UniProt P23255 1392-1402, looked up)
peptide: SRSFMVKIRTK
notes: Taf2, subunit of yeast TFIID, C-terminal hxhKh motif-containing tail, aa 1392–1402; also called Taf2 peptide; C-terminal tail of Taf2; source: synthetic peptide (Synpeptide)
For B4, the Kd in the series with His-Taf14FL was 0.7 µM; with His-Taf14_(YEATS), 6 µM.
